# Measured values from patent US20210045419A1 (UNIVERSITY OF MANITOBA, published 2021).
# T1: bitter taste receptor T2R4 (UniProt Q9NYW5 1-299, limits assumed)
# T1 sequence (looked up): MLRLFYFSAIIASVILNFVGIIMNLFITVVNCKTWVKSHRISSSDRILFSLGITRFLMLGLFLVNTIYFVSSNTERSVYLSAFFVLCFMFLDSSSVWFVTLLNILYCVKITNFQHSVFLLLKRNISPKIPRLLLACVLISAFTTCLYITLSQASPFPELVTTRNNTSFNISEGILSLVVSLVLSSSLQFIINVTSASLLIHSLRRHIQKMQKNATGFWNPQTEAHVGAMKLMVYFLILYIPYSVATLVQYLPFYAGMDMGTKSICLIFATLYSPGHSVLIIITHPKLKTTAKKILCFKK
# Biological target: T1, bitter taste receptor T2R4
# Test: cell-based or functional assay
binder,measurement,value
AGDDAPRAVF [AGDDAPRAVF (SEQ ID No:5)],"IC50, peptide and quinine (1 mM) competition calcium mobilization assay on T2R4-expressing HEK293T cells",85 µM
